According to patent US20200385434A1 (VOLUTION IMMUNO PHARMACEUTICALS, published 2020):

Target: T1, human complement component C5 (human, UniProt P01031 19-673; P01031 678-1676)
T1 construct: Purified human C5 was amine-coupled to a CM3 sensor chip for SPR; In the CH50 assay the C5 is the one present in pooled normal human serum; Native C5 is a disulphide-linked two-chain protein made from one precursor; also called human C5
Experiment: SPR (BIAcore 2000, 25 C), human C5 amine-coupled to a CM3 chip, Coversin injected at 0-96 nM, global Langmuir fit

T1 sequence (P01031 19-673 limits assumed, chain 1 of 2): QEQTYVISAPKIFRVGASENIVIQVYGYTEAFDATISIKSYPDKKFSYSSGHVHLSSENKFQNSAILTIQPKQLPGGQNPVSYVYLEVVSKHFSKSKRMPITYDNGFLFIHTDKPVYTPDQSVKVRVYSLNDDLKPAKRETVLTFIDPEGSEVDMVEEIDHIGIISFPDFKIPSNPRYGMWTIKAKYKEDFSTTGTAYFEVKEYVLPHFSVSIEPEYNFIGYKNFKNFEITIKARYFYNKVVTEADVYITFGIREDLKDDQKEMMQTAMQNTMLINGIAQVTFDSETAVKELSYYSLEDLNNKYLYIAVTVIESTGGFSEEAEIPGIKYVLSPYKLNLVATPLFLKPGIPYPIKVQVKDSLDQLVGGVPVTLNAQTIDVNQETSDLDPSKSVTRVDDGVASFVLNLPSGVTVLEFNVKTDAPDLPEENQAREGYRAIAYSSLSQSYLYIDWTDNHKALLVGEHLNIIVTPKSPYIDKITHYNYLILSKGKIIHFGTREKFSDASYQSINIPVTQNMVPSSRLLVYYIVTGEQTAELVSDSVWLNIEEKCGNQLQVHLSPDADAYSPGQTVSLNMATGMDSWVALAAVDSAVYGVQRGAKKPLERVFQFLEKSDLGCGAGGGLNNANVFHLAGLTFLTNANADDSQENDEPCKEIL
T1 sequence (P01031 678-1676 limits assumed, chain 2 of 2): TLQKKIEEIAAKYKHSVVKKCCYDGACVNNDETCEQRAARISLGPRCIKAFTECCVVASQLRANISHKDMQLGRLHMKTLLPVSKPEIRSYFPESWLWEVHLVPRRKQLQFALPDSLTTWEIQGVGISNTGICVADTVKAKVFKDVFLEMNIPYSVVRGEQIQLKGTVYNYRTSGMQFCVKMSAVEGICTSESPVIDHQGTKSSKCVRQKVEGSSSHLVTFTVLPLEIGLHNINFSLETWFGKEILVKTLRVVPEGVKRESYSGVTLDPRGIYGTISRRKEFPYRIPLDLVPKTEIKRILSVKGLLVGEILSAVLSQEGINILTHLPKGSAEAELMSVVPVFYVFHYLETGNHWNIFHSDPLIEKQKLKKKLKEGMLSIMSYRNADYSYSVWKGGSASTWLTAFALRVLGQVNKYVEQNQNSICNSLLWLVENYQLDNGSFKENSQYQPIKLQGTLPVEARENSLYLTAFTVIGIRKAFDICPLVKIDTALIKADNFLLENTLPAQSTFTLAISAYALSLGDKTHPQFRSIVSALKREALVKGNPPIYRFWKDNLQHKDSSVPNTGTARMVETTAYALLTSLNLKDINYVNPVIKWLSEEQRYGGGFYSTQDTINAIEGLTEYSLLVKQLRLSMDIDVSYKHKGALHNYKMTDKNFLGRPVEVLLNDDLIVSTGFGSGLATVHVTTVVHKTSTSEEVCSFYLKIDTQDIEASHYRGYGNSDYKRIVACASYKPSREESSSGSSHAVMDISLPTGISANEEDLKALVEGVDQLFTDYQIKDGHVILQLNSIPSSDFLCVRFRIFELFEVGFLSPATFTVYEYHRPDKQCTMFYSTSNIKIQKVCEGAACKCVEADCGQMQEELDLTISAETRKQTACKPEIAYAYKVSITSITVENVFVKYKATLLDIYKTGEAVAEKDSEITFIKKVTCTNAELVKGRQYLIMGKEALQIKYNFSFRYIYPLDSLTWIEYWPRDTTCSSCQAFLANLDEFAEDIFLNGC

B1: wild type Coversin (Ornithodoros moubata) (other)
chain: DSESDCTGSEPVDAFQAFSEGKEAYVLVRSTDPKARDCLKGEPAGEKQDNTLPVMMTFKNGTDWASTDWTFTLDGAKVTATLGNLTQNREVVYDSQSHHCHVDKVEKEVPDYEMWMLDAGGLEVEVECCRQKLEELASGRNQMYPHLKDC
notes: also called Coversin wild type; unmodified Coversin polypeptide
Kd: 1.45 nM
